B1: Hairpin Ribozyme (parent)
chain: GUCCUCUUUCACGUGCGCGUGAAAGAGAGAAGUGAACCAGAGAAACACACGUUGUGGUAUAUUACCUGGUA

In the data set the parent is B1. Nature of the data set: self-cleavage, relative activity (ratio to wild type); higher = more cleavage; co-transcriptional.
In the case of G15U G40A, the self-cleavage was 0.335.

As for G15U G40U, the self-cleavage came to 0.206. With C16A A61C the figure was 0.359.

C16A A61G: the self-cleavage stood at 0.203. Take G15C G56C: the self-cleavage came out at 0.113. For the variant G15C G56U, the self-cleavage stood at 0.113. Consider G15U C50A, for which the self-cleavage was 0.274. For G15C A59U, the self-cleavage came to 0.224.

As to G15C A59C, the self-cleavage was 0.146. G15C A64G: the self-cleavage was 0.532.

In the case of G15C A64C, the self-cleavage was 0.162. As to C16A A36U, the self-cleavage was found to be 0.554. C16A A36G: the self-cleavage is 1.1.

Regarding G15U C66G, the self-cleavage is 0.183. Turning to G15U G17C, the self-cleavage was 0.881. For C16A U63C, the self-cleavage stood at 0.0962.

As for G15U A24G, the self-cleavage was found to be 1.12. G15U A24C: the self-cleavage worked out at 1.08.

Consider G15U A26U, for which the self-cleavage was 0.831. Turning to G15U A26C, the self-cleavage worked out at 0.96. Regarding G15U G32C, the self-cleavage amounted to 0.122.

Consider G15U A49C, for which the self-cleavage was determined as 0.0683. The figure for G15U A49U is 0.0651; for G15U A47G it is 0.116. As to C16A C50G, the self-cleavage was 0.24.

Regarding G15C U33A, the self-cleavage worked out at 0.0629. As for G15C U60A, the self-cleavage was 0.709.

G15U A28U: the self-cleavage worked out at 0.765.

In the case of C16A U67G, the self-cleavage is 0.182. In the case of G15C U53A, the self-cleavage was 0.792. G15U C46U: the self-cleavage was 0.187.

Consider G15U G57U, for which the self-cleavage stood at 0.296.

Turning to G15U G57A, the self-cleavage was determined as 0.153. As for C16A G51C, the self-cleavage worked out at 0.714. The figure for C16A G51A is 0.943. With G15U U20C, the self-cleavage stood at 1. Regarding G15C C65U, the self-cleavage amounted to 0.352. The figure for G15U C16A is 1.11; for C16A U62C it is 0.276; for C16A U62G it is 0.154.

As for C16A U58G, the self-cleavage worked out at 0.736. As to G15U U58G, the self-cleavage is 0.711. On to G15C G68C, for which the self-cleavage amounted to 0.165. With C16A A64C, the self-cleavage stood at 0.133. Consider C16A A22C, for which the self-cleavage turned out to be 0.713. Turning to G15U G27C, the self-cleavage came out at 0.278. For the variant G15U G27A, the self-cleavage came to 0.432. Turning to G15C G51U, the self-cleavage turned out to be 0.91. Turning to C16A A44G, the self-cleavage came out at 0.153. The figure for G15C U20A is 0.963; for C16A G21U it is 0.72. For the variant G15C G25U, the self-cleavage turned out to be 0.637. On to G15C G25A, for which the self-cleavage stood at 0.607. As to G15U U53A, the self-cleavage came to 1.16. The figure for G15U U53C is 1.04; for C16A C66U it is 0.416.

Take G15U U63A: the self-cleavage is 0.164. Consider C16A C37G, for which the self-cleavage was 0.324.

For the variant C16A C37A, the self-cleavage is 0.377. As to C16A G27C, the self-cleavage was found to be 0.218.

On to C16A G27U, for which the self-cleavage came to 0.202. Consider C16A G69U, for which the self-cleavage came out at 0.334. Regarding C16A A24U, the self-cleavage was determined as 0.632. Take G15C A61U: the self-cleavage came to 0.181.

For the variant G15C A61G, the self-cleavage was 0.173.

Regarding C16A U70A, the self-cleavage came out at 0.83. With C16A U70C the figure was 0.978. Regarding G15C U62C, the self-cleavage came out at 0.0966.

With G15C C66G, the self-cleavage amounted to 0.0808. As to G15U U52C, the self-cleavage was 0.911. On to G15C C48A, for which the self-cleavage came to 0.121.

For G15C G34C, the self-cleavage is 0.578.

Turning to G15C G34A, the self-cleavage was 1.02. Take G15U G34U: the self-cleavage stood at 1.46. For G15C G19A, the self-cleavage is 0.913. With G15U C65G, the self-cleavage amounted to 0.244. The figure for C16A G40U is 0.147; for G15U A61C it is 0.261.

With C16A G42A, the self-cleavage was found to be 0.366. G15C A71C: the self-cleavage came to 1.29. With C16A U52G the figure was 0.879; with G15U A64C, 0.16. For G15U A64G, the self-cleavage amounted to 0.657. As for G15U G51A, the self-cleavage amounted to 0.948. On to G15U G51U, for which the self-cleavage is 1.22. G15U G51C: the self-cleavage is 1.08.

Take G15U U70A: the self-cleavage turned out to be 0.96. With C16A A47C, the self-cleavage was 0.365. Turning to C16A A47U, the self-cleavage was found to be 0.0731. As to C16A G34U, the self-cleavage was found to be 1.47.

As for C16A G34A, the self-cleavage was 1.35.

In the case of G15U U67C, the self-cleavage was found to be 0.267. In the case of G15U G68U, the self-cleavage is 0.329.

For G15U G68A, the self-cleavage is 0.387. On to C16A C48G, for which the self-cleavage was found to be 0.155. C16A A41C: the self-cleavage was found to be 1.18. The figure for G15U A59G is 0.161. Take C16A G17U: the self-cleavage worked out at 0.944. For the variant C16A A59G, the self-cleavage was 0.085. For C16A A43U, the self-cleavage is 0.0656. With G15C U63A the figure was 0.188; with G15U A30U, 0.146. G15U U33C: the self-cleavage turned out to be 0.178.

Regarding C16A A26U, the self-cleavage came to 0.607. With G15U G42A, the self-cleavage is 0.207.

With C16A U55G, the self-cleavage stood at 0.232. As for C16A U55A, the self-cleavage amounted to 0.221.

As to G15U A39G, the self-cleavage was found to be 0.245. On to C16A C18G, for which the self-cleavage is 0.841. The figure for C16A C18U is 0.98; for C16A U33G it is 0.317; for C16A A23G it is 0.783.

Turning to G15C C18U, the self-cleavage is 0.922. Regarding G15C C18G, the self-cleavage amounted to 0.863. The figure for G15C U58G is 0.493; for G15C A45C it is 0.18; for G15C A47U it is 0.142.

On to G15C G29U, for which the self-cleavage came to 0.174. G15C G29C: the self-cleavage is 0.116. Consider G15U G19U, for which the self-cleavage turned out to be 0.853. Turning to G15U C37A, the self-cleavage was determined as 0.386.

Consider G15U C37U, for which the self-cleavage came to 0.784. Take G15U C37G: the self-cleavage stood at 0.339. In the case of C16A G29A, the self-cleavage stood at 0.144.

C16A G29U: the self-cleavage was determined as 0.128.

For the variant C16A G29C, the self-cleavage came to 0.0987. With G15C C46U the figure was 0.151; with C16A A30G, 0.11. The figure for G15C C38A is 0.22; for G15C C38G it is 0.127; for G15U U55A it is 0.304. With C16A G19A the figure was 0.991; with G15C G57C, 0.137. Consider G15U G69C, for which the self-cleavage turned out to be 0.434. The figure for G15U G69A is 0.448. On to G15C C16U, for which the self-cleavage was 1.29.

Regarding G15U G25A, the self-cleavage was 0.703. C16A A31C: the self-cleavage is 0.0433. Consider C16G A22C, for which the self-cleavage is 0.604. On to C16G A22U, for which the self-cleavage amounted to 0.691. Consider C16A C38A, for which the self-cleavage is 0.203.

Consider G15U G56U, for which the self-cleavage was found to be 0.0866. For the variant G15U A71U, the self-cleavage was found to be 0.923. G15U A71G: the self-cleavage was found to be 1.12. With G15U A43G the figure was 0.151; with G15U A43U, 0.104; with C16A C46U, 0.0901. With G15C G17U the figure was 0.959. With C16A A45C the figure was 0.123; with C16A A45G, 0.115. As to C16A U20A, the self-cleavage was determined as 0.743. On to C16A U20G, for which the self-cleavage was determined as 0.812. C16A G56U: the self-cleavage stood at 0.151. Turning to C16A G32C, the self-cleavage came to 0.0596.

With C16A G32A, the self-cleavage came out at 0.121. Turning to C16A G32U, the self-cleavage amounted to 0.226. With C16A A39C the figure was 0.484; with G15U G29A, 0.0502; with G15C C37G, 0.298. In the case of G15C G42U, the self-cleavage was found to be 0.19.

As for G15U C48A, the self-cleavage amounted to 0.226. The figure for G15U C48G is 0.213.

For G15U C48U, the self-cleavage came to 0.149. Turning to G15U C18G, the self-cleavage was 1.02.

Consider C16A U53C, for which the self-cleavage was found to be 0.753.

In the case of C16A G25A, the self-cleavage stood at 0.561.

With C16A G57A, the self-cleavage was 0.129.

Values taken from the RNAGym collection of RNA variant scans (doi:10.7554/elife.80360).
